B1: caspase-1^CARD (1-95, G20K), as it stands in the fusion m16 (domain or fragment, UniProt P29466 1-95, looked up)
chain: MADKVLKEKRKLFIRSMGEKTINGLLDELLQTRVLNKEEMEKVKRENATVMDKTRALIDSVIPKGAQACQICITYICEEDSYLAGTLGLSADQTS
notes: caspase-1, CARD, residues 1-95, type IIb mutant G20K; Joined on one chain with m17 through a 5x GSS linker; source: E. coli BL21 (DE3), purified as part of the fusion protein m16

How the values were obtained:
[1] = biological target: CARD8^CARD (P446-L537, A452C), MBP tag cleaved (human) (UniProt Q9Y2G2); test: negative stain EM of filament formation; purified MBP-fused protein cleaved with 3C protease for 3 h at 37 °C at different concentrations (0.1 to 30 µM), then negatively stained with 1% uranyl formate and imaged
[2] = biological target: the molecule itself; test: cryo-EM structure; ASC^CARD-caspase-1^CARD octamer; 25 mM Tris-HCl pH 8.0, 150 mM NaCl, 2 mM DTT; 3.9 Å map
[3] = biological target: the molecule itself; test: SEC; preparative SEC of amylose-purified His-MBP fusions (Superdex 200 for MBP-CARD, Superose 6 for MBP-UPA and MBP-NLRP1-CT); 25 mM Tris-HCl pH 7.5, 150 mM NaCl, 1 mM TCEP
[4] = biological target: the molecule itself; test: SEC-MALS; Superdex 200 in 25 mM Tris-HCl pH 8.0, 150 mM NaCl, 2 mM DTT, three-angle light scattering and refractive index detectors, 0.5 mL/min
[5] = biological target: B1; test: cryo-EM structure; ASC^CARD-caspase-1^CARD octamer; 25 mM Tris-HCl pH 8.0, 150 mM NaCl, 2 mM DTT; 3.9 Å map; conditions: both partners purified

Molecule | binding result [2] | binding result [3] | further results
CARD8^CARD (P446-L537, A452C), MBP tag cleaved (from UniProt Q9Y2G2-5 446-537) (domain or fragment) | – | – | minimum concentration required to form filaments [1]: 15 µM
B1 | binds | – | –
NLRP1 His-MBP-3C-UPA (S1213-P1364), uncleaved (domain or fragment, human, UniProt Q9C000-1 1213-1364, looked up, NLRP1, human, UPA S1213-P1364, isoform 1 (UniProt Q9C000-1); also called oligomeric MBP-UPA protein; source: E. coli BL21 (DE3), purified (amylose resin, Superose 6); not shown: His, N-terminal, kept; MBP, N-terminal, kept) SPLGVLLKMIHNALRFIPVTSVVLLYHRVHPEEVTFHLYLIPSDCSIRKAIDDLEMKFQFVRIHKPPPLTPLYMGCRYTVSGSGSGMLEILPKELELCYRSPGEDQLFSEFYVGHLGSGIRLQVKDKKDETLVWEALVKPGDLMPATTLIPP | – | binds | –
ASC^CARD (106-195, W169G)-5xGSS-caspase-1^CARD (1-95, G20K) fusion protein (other, ASC (apoptosis-associated speck-like protein containing a CARD), CARD, residues 106-195, type IIa mutant W169G; 5x GSS linker, written out from the printed '5XGSS'; caspase-1, CARD, residues 1-95, type IIb mutant G20K; Four fusion chains form an octamer of CARDs; also called ASC^CARD-caspase-1^CARD octamer; ASC^CARD-caspase-1^CARD fusion protein; source: E. coli BL21 (DE3), purified (Ni-NTA, TEV …)) SAAKPGLHFIDQHRAALIARVTNVEWLLDALYGKVLTDEQYQAVRAEPTNPSKMRKLFSFTPAGNWTCKDLLLQALRESQSYLVEDLERSGSSGSSGSSGSSGSSMADKVLKEKRKLFIRSMGEKTINGLLDELLQTRVLNKEEMEKVKRENATVMDKTRALIDSVIPKGAQACQICITYICEEDSYLAGTLGLSADQTS | – | – | stoichiometry N [4]: 4
ASC^CARD (106-195, W169G), as it stands in the fusion m16 (domain or fragment, UniProt Q9ULZ3 106-195, looked up, ASC (apoptosis-associated speck-like protein containing a CARD), CARD, residues 106-195, type IIa mutant W169G; Joined on one chain with m18 through a 5x GSS linker; source: E. coli BL21 (DE3), purified as part of the fusion protein m16) SAAKPGLHFIDQHRAALIARVTNVEWLLDALYGKVLTDEQYQAVRAEPTNPSKMRKLFSFTPAGNWTCKDLLLQALRESQSYLVEDLERS | binds | – | binding result [5]: binds
CARD8 His-MBP-3C-UPA (S297-P446), uncleaved (domain or fragment, human, UniProt Q9Y2G2-5 297-446, looked up, CARD8, human, UPA S297-P446; numbers count on: T60 isoform, UniProt Q9Y2G2-5; Made by a stop codon in the CARD8 His-MBP-3C-UPA-CARD plasmid; also called oligomeric MBP-UPA protein; source: E. coli BL21 (DE3), purified (amylose resin, Superose 6); not shown: His, N-terminal, kept; MBP, N-terminal, kept) SLMGILLRIASGTRLSIPITSNTLIYYHPHPEDIKFHLYLVPSDALLTKAIDDEEDRFHGVRLQTSPPMEPLNFGSSYIVSNSANLKVMPKELKLSYRSPGEIQHFSKFYAGQMKEPIQLEITEKRHGTLVWDTEVKPVDLQLVAASAPP | – | binds | –
